Positions count from the first letter of the chain named.
T1: biotinylated hOX40L (R&D Systems, biotinylated in house) (human, UniProt P23510 51-183, biotinylated with Sulfo-NHS-LC-Biotin, sites not stated)
T1 construct: same bought protein as m10, biotinylated; also called biotinylated OX40L
T1 sequence: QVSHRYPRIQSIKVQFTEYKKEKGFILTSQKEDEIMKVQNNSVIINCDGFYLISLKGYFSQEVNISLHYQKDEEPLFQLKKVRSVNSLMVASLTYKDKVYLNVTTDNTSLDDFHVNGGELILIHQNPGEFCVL

T2: full length human OX40L expressed on CHO cells (human, UniProt P23510 1-183)
T2 sequence: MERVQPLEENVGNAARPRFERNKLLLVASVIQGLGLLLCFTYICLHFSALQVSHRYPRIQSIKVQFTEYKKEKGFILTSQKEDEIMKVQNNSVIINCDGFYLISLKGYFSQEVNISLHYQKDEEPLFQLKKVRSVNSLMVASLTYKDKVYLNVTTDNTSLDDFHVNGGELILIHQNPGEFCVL

T3: cynomolgus OX40L expressed on CHO cells (cynomolgus monkey, UniProt P23510 1-183 (human entry))
T3 construct: also called cynoOX40L; CHO-cynoOX40L
T3 chain: T2 sequence with R55Q, K73E

T4: hCD40L (human, UniProt P29965 113-261)
T4 sequence (looked up): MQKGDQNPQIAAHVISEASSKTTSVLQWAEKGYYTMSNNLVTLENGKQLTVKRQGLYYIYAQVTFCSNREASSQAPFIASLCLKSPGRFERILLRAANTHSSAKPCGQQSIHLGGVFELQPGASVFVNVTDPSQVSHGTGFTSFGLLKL

T5: hCD30L (human, UniProt P32971 63-234)
T5 sequence (looked up): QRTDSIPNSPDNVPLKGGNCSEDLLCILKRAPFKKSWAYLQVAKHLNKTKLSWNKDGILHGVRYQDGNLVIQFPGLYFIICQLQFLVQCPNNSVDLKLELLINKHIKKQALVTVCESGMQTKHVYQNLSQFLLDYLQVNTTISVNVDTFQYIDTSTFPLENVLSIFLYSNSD

T6: human Receptor Activator for Nuclear Factor kappa B Ligand (human, UniProt O14788 143-317, limits assumed)
T6 construct: also called hRANKL; RANKL
T6 sequence (looked up): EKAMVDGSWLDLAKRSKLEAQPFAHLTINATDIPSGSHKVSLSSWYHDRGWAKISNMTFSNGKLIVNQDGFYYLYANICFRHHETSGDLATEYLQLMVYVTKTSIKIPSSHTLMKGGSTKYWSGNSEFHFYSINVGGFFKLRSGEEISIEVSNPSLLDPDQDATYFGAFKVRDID

B1: OX40L056 (VHH, not shown: small tags and cut ends)
VHH: DVQLVESGGGLVQPGGSLRLSCAASRSIGRLDRMGWYRHRPGKPRELVATITGGSSINYADSVKGRFTISRDNSKNTVYLQMNSLRPEDTAVYYCNFNKYVTSRDTWGQGTLVTVSS
B2: OX40L082 (VHH, not shown: small tags and cut ends)
VHH: B1 VHH with D1E, K43E, A60G, R71I
B3: OX40L083 (VHH, not shown: small tags and cut ends)
VHH: B1 VHH with D1E, A60G, R71I
B4: OX40L19D08 (VHH)
VHH: EVQLVESGGGLVQAGASLRLSCAASGRRFISNYAMGWFRQAPGQERAFVAAISRSGSITYYTDSVKGRFSISRDYAKSTVYLQMDNLKPEDTAVYYCAADGGAVRDLTTNLPDYWGRGTQVTVSS
notes: monovalent Nanobody from E. coli; not shown: C-terminal c-myc and His6 tag
B5: recombinant human OX40L (extracellular domain, R&D Systems) (ligand)
chain: T1 sequence
notes: also called hOX40L; rec. hOX40L

Experiments:
[1] = molecular target: B5; test: cell-based or functional assay
[2] = molecular target: T1, biotinylated hOX40L (R&D Systems, …); test: hOX40L/hOX40 AlphaScreen, assay 3, native
Procedure: (§1) Next, streptavidin donor beads were added and incubated for an additional 1 hour. Fluorescence was measured by reading plates on the EnVision Multilabel Plate Reader using an excitation wavelength of 680 nm and an emission wavelength of 520 nm.
(§2) In the TSA assay, Nanobodies were diluted to a concentration of 0.2 mg/ml and melting temperature (Tm) was determined at different pH by stepwise increase in temperature in presence of Sypro Orange, a dye that binds to […] residues that become exposed upon unfolding of the protein, using the Lightcycler (Roche) for detection. […] In SEC analysis, the Nanobodies were analyzed on a Phenomenex matrix to allow detection of multimers, aggregates or ‘stickyness’.

[3] = molecular target: T1, biotinylated hOX40L (R&D Systems, …); test: hOX40L/hOX40 AlphaScreen, assay 2, heated at Tm+10 C
Procedure: as §1, §2

[4] = molecular target: T1, biotinylated hOX40L (R&D Systems, …); test: hOX40L/hOX40 AlphaScreen, assay 3, heated at Tm+10 C
Procedure: as §1, §2

[5] = molecular target: T1, biotinylated hOX40L (R&D Systems, …); test: hOX40L/hOX40 AlphaScreen, assay 2, native; assay 2, native (not Tm + 10° C.)
[6] = molecular target: T1, biotinylated hOX40L (R&D Systems, …); test: hOX40L/hOX40 AlphaScreen
[7] = molecular target: T2, full length human OX40L expressed on …; test: cell-based or functional assay
[8] = molecular target: T2, full length human OX40L expressed on …; test: competition FACS with hOX40/Fc on CHO-hOX40L
Procedure: The competition FACS assay was performed as described in example 2.

[9] = molecular target: B5; test: SPR, after second injection of buffer HBS-EP+
Procedure: (§3) In addition, it was investigated to what extend the 7 anti-OX40L Nanobodies have a different or identical or overlapping epitope. Standard conditions were as described above. […] 1300 RU. A dual injection was performed at 10 μl/min for 2 min, starting with 500 nM of the first Nanobody, followed by 500 nM of the second Nanobody. After 10 min dissociation, regeneration of the surface was performed by injection of 50 mM NaOH for 5-20 sec at 100 μl/min.

[10] = molecular target: T2, full length human OX40L expressed on …; test: FACS binding to CHO cells, anti-c-myc detection
Procedure: (§4) Transfection of CHO K1 with the respective expression plasmid DNA and selection of clones with high expression levels was performed as described in Example 1. Binding of the Nanobodies to the cell surface expressed OX40L was assessed by FACS analysis of cells as described below.
(§5) After washing bound Nanobodies were detected in FACSArray™ using mouse anti-c-myc and PE conjugated goat anti-mouse IgG.

[11] = molecular target: T3, cynomolgus OX40L expressed on CHO cells; test: FACS binding to CHO cells, anti-c-myc detection
Procedure: as §4, §5

[12] = molecular target: B5; test: SPR, second injection after competitor OX40L01B11
Procedure: as §3

[13] = molecular target: B5; test: SPR, second injection after competitor OX40L01E07
Procedure: as §3

[14] = molecular target: B5; test: SPR, second injection after competitor OX40L01E10
Procedure: as §3

[15] = molecular target: B5; test: SPR, second injection after competitor OX40L15B07
Procedure: as §3

[16] = molecular target: B5; test: SPR, second injection after competitor OX40L18E09
Procedure: as §3

[17] = molecular target: B5; test: SPR, second injection after competitor OX40L19A07
Procedure: as §3

[18] = molecular target: B5; test: SPR, second injection after competitor OX40L19D08
Procedure: as §3

[19] = molecular target: T1, biotinylated hOX40L (R&D Systems, …); test: AlphaScreen, 31 pM biotinylated hOX40L + 80 pM OX40/Fc
Procedure: as §1

[20] = molecular target: hTNF-alpha (human, UniProt P01375 77-233); test: competition ELISA on neutravidin captured biotinylated hOX40L
Chain of hTNF-alpha (P01375 77-233 limits assumed): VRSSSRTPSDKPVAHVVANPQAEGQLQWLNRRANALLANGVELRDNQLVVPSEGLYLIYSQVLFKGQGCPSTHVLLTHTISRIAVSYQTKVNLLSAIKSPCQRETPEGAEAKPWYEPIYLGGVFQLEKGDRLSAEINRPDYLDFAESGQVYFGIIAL
Procedure: (§6) The binding of OX40L blocking Nanobodies to other TNF family members was tested in a competition ELISA.
(§7) Detection was done using sTMB (SDT Reagents, Baesweiler, Germany), the reaction was stopped with 1M HCl and absorbance was determined at 450 nm.

[21] = molecular target: T4, hCD40L; test: as above
Procedure: as §6, §7

[22] = molecular target: T5, hCD30L; test: as above
Procedure: as §6, §7

[23] = molecular target: T6, human Receptor Activator for Nuclear …; test: as above
Procedure: as §6, §7

[24] = molecular target: T7, human tumor necrosis factor-related apoptosis inducing ligand (human, UniProt P50591 114-281); test: as above
T7 construct: also called hTRAIL; TRAIL
T7 sequence (P50591 114-281 limits assumed): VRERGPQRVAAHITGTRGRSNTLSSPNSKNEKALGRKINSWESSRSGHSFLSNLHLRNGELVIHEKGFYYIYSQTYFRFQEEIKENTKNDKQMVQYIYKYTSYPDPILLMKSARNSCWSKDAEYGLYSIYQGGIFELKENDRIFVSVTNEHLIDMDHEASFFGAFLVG
Procedure: as §6, §7

[25] = molecular target: T1, biotinylated hOX40L (R&D Systems, …); test: AlphaScreen, 120 pM biotinylated hOX40L + 0.2 nM hOX40/Fc
Procedure: as §1

[26] = molecular target: T2, full length human OX40L expressed on …; test: competition FACS, 3.1 nM hOX40/Fc on hOX40L expressing cells
[27] = molecular target: T8, OX40L01E07; test: competition ELISA: fixed concentration of OX40L01E07 pre-incubated with a concentration series of soluble hOX40L, then added to biotinylated hOX40L captured on neutravidin; bound Nanobody detected with rabbit anti-VHH antiserum and HRP goat anti-rabbit IgG, OD450nm
T8 construct: monovalent Nanobody from E. coli; not shown: C-terminal c-myc and His6 tag
T8 sequence (VHH, as listed by the source): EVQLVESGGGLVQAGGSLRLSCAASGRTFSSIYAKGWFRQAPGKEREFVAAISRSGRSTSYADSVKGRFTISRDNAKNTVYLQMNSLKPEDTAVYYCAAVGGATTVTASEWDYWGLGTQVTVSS
Procedure: as §6, §7

Binder: B1
- IC50, T cell assay with rec. hOX40L [1]: 135 nM
- IC50 [2]: 1.12 nM
- IC50 [3]: 1.12 nM
- IC50 [4]: 1.12 nM
- IC50 [5]: 1.12 nM

Binder: B2
- fold decrease in potency compared with the parental Nanobody OX40L15B07 [6]: ~2 fold
- IC50 [2]: 0.14 nM
- IC50 [4]: 0.14 nM

Binder: B3
- fold drop in potency compared with the parental Nanobody OX40L15B07 [6]: ~6 fold

Binder: B4
- IC50, IL4 production, T-cell activation assay, donor 1 [7]: 90 nM
- IC50, IL4 production, T-cell activation assay, donor 2 [7]: 132 nM
- IC50, IL4 production, T-cell activation assay, donor 3 [7]: 36 nM
- IC50, IL4 production, T-cell activation assay, donor 4 [7]: 96 nM
- IC50 [8]: 4 nM
- Binding Level sample 2 (RU) [9]: 184 RU
- Binding Level sample 2 - sample 1 (RU) [9]: -38 RU
- EC50 [10]: 2.85 nM
- EC50 [11]: 3.4 nM
- Binding Level sample 2 (RU) [12]: 468 RU
- Binding Level sample 2 - sample 1 (RU) [12]: 159 RU
- Binding Level sample 2 (RU) [13]: 187 RU
- Binding Level sample 2 - sample 1 (RU) [13]: 3 RU
- Binding Level sample 2 (RU) [14]: 275 RU
- Binding Level sample 2 - sample 1 (RU) [14]: 49 RU
- Binding Level sample 2 (RU) [15]: 239 RU
- Binding Level sample 2 - sample 1 (RU) [15]: 42 RU
- Binding Level sample 2 (RU) [16]: 224 RU
- Binding Level sample 2 - sample 1 (RU) [16]: 33 RU
- Binding Level sample 2 (RU) [17]: 224 RU
- Binding Level sample 2 - sample 1 (RU) [17]: 47 RU
- Binding Level sample 2 (RU) [18]: 236 RU
- Binding Level sample 2 - sample 1 (RU) [18]: 7 RU
- IC50 [19]: 0.133 nM
- binding result [20]: no binding (tested: starting from 100 fold molar excess)
- binding result [21]: no binding (tested: starting from 100 fold molar excess)
- binding result [22]: no binding (tested: starting from 100 fold molar excess)
- binding result [23]: no binding (tested: starting from 100 fold molar excess)
- binding result [24]: no binding (tested: starting from 100 fold molar excess)
- IC50 [25]: 0.285 nM
- IC50 [26]: 3.31 nM

Binder: B5
- IC50 (read off the curve) [27]: ~0.8 nM
